The record followed here is US20120114652A1 (AbbVie / Abbott, published 2012).

Positions count from the first letter of the chain named.

The labels stand for the following.
T1: rat PAI-1 (rat, UniProt P20961 24-402)
T1 sequence: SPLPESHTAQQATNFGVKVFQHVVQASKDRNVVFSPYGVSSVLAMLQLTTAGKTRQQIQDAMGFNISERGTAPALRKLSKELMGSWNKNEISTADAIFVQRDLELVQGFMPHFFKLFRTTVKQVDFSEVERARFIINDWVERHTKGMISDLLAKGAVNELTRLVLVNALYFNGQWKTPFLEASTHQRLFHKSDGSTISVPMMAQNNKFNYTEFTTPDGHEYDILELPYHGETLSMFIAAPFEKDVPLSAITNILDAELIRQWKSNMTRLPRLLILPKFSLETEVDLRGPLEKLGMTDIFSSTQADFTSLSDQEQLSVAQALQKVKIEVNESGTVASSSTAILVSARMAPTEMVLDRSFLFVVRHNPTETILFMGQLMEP

T2: mouse PAI-1 (mouse, UniProt P22777 24-401)
T2 sequence: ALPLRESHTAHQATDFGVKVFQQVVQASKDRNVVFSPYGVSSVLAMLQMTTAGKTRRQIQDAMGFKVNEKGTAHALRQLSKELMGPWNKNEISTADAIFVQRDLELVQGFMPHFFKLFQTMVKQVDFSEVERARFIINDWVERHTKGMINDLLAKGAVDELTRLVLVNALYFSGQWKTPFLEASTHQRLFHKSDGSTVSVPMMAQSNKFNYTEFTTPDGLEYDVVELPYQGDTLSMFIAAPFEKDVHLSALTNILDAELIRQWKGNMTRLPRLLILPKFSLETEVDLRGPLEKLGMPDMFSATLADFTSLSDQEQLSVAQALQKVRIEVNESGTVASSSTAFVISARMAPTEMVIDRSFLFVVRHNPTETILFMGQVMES

B1: Antibody 15, scFv (scFv, V domains shown)
VH: QVQLQQSGAEVKKPGSSVKVSCKASGGTFSSYAISWVRQAPGQGLEWMGGIIPTFGTANYAQKFQGRVTITADESTSTAYMELSGLRSEDTAVYYCAREKRQWLEGHFDYWGRGTPVTVSS
VL: DIQMAQSPSFLSASIGDRVTITCRASEGIYHNLAWYQQKPGKAPKLLIYRASSLASGAPSRFSGSGSGTDFTLTISSLQPDDFATYYCQQYSNYPLTFGGGTKLEIR
B2: Antibody 01, scFv (scFv, V domains shown)
VH: B1 VH with Q5V, T54I, G85S, P116L
VL: B1 VL with A5T, F10T, I15V, H31R, N32S, R50K, A58V, D70E, L104V, R107K
B3: Antibody 26, scFv (scFv, V domains shown)
VH: B1 VH with S16T, T54I, G85S
VL: B1 VL with A5T, N32T, R107K
B4: Antibody 06, scFv (scFv, V domains shown)
VH: B1 VH
VL: B1 VL with A5T, N32E, G100R, R107K
B5: Antibody 18, scFv (scFv, V domains shown)
VH: B1 VH with F64L
VL: B1 VL with A5T, N32A, R107K
B6: Antibody 07, scFv (scFv, V domains shown)
VH: B1 VH with M48V
VL: B1 VL with N32E, R107K
B7: Antibody 02, scFv (scFv, V domains shown)
VH: B1 VH with Q5V, G85S, P116L
VL: B1 VL with A5T, F10T, I15V, N32S, R50K, A58V, D70E, N93D, L104V, R107K
B8: Antibody 04, scFv (scFv, V domains shown)
VH: B1 VH with Q3R, Q65R, D73N, H107R, P116L
VL: B1 VL with A5T, V19I, N32S, Y49H, S52T, A58T, S63G, T72A, R107K
B9: Antibody 05, scFv (scFv, V domains shown)
VH: B1 VH with G56S, Q65R
VL: B1 VL with A5T, N32Q, R107K
B10: Antibody 03, scFv (scFv, V domains shown)
VH: B1 VH
VL: B1 VL with A5T, H31R, N32S, R50K, S77G, R107K
B11: Antibody 10, scFv (scFv, V domains shown)
VH: B1 VH with G85S
VL: B1 VL with A5T, T20A, N32S, K103R, R107K
B12: Antibody 14, scFv (scFv, V domains shown)
VH: B1 VH with P116L
VL: B1 VL with A5T, L73F, R107K
B13: Antibody 09, scFv (scFv, V domains shown)
VH: B1 VH with T54A, G56D
VL: B1 VL with A5T, R24Q, R107K
B14: Antibody 27, scFv (scFv, V domains shown)
VH: B1 VH with T28A
VL: B1 VL with A5T, R107K
B15: Antibody 20, scFv (scFv, V domains shown)
VH: B1 VH with G85S, P116L
VL: B1 VL with A5T, F10T, I15V, N32E, A58V, G66R, D70E, N93D, L104V, R107K
B16: Antibody 03, IgG4, not germlined (antibody, V domains shown)
VH: B1 VH
VL: B1 VL with A5T, H31R, N32S, R50K, S77G, R107K

One assay addresses T3, human PAI-1, active, wild-type, non-glycosylated (E. coli-derived) (human, UniProt P05121 24-402). The experiment in a line: cell-based or functional assay.
B1 yielded an IC50 chromogenic of 7.2 nM.
The same measure, in the same setting: the result for B2 reads 3.4 nM; that for B3, 4 nM.
The same measure, in the same setting: the result for B4 reads 74.6 nM.
Same read-out and setting: the result for B5 reads 1.3 nM.
Molecule B6 yielded an IC50 chromogenic of 187 nM.
Turning to B7, the IC50 chromogenic is 0.6 nM.
Regarding B8, the IC50 chromogenic came to 6.6 nM.
On the same count and under the same terms, the result for B9 reads 5 nM.
Same read-out and setting: the result for B10 reads 1.8 nM.
Still for that read-out and setting: the result for B11 reads 2.2 nM.

A further assay deals with T1, rat PAI-1. The experiment in a line: cell-based or functional assay.
In turn, B12 came in with an IC50 chromogenic of 23.1 nM.
For the molecule B1, the IC50 chromogenic was 64.2 nM and the IC50 ratio rat/human stood at 8.9.
With B2, the IC50 chromogenic turned out to be 208 nM and the IC50 ratio rat/human turned out to be 60.5.
The corresponding values for B3 are 245 nM and 61.4.
Regarding B13, the IC50 chromogenic turned out to be 29.7 nM.
Take B4: the IC50 chromogenic worked out at 37.1 nM and the IC50 ratio rat/human stood at 0.5.
On to B14, for which the IC50 chromogenic stood at 49.8 nM.
For the molecule B5, the IC50 chromogenic was found to be 238 nM and the IC50 ratio rat/human came out at 190.
For B6, in that order: 91 nM and 0.5.
The corresponding values for B7 are 530 nM and 891.
The corresponding values for B8 are 340 nM and 51.4.
Turning to B9, the IC50 chromogenic was determined as 860 nM and the IC50 ratio rat/human was 172.
For B10, in that order: 297 nM and 165.
Regarding B11, the IC50 chromogenic was determined as 296 nM and the IC50 ratio rat/human turned out to be 132.

The target in another assay is T2, mouse PAI-1. The experiment in a line: cell-based or functional assay.
In the case of B1, the IC50 chromogenic was found to be 66.9 nM and the IC50 ratio mouse/human came to 9.3.
Turning to B2, the IC50 chromogenic came out at 28.3 nM and the IC50 ratio mouse/human was determined as 8.2.
For B3, in that order: 211 nM and 52.9.
For the molecule B4, the IC50 chromogenic is 48.2 nM and the IC50 ratio mouse/human stood at 0.6.
For B5, the IC50 chromogenic amounted to 319 nM and the IC50 ratio mouse/human amounted to 255.
The corresponding values for B6 are 143 nM and 0.8.
For the molecule B7, the IC50 chromogenic turned out to be 553 nM and the IC50 ratio mouse/human was 929.
The corresponding values for B8 are 264 nM and 39.9.
In turn, B15 registered an IC50 chromogenic of 4.9 nM.
On to B9, for which the IC50 chromogenic amounted to 718 nM and the IC50 ratio mouse/human stood at 144.
Consider B10, for which the IC50 chromogenic came out at 54.9 nM and the IC50 ratio mouse/human stood at 30.5.
The corresponding values for B11 are 334 nM and 149.
On to B16, for which the IC50 chromogenic was determined as 12.9 nM.

Another assay deals with cynomolgus PAI-1 (cynomolgus, UniProt P05121 24-402 (human entry), limits assumed). The experiment in a line: cell-based or functional assay.
In turn, B12 had an IC50 chromogenic of 0.8 nM.
As for B1, the IC50 chromogenic stood at 2.2 nM and the IC50 ratio cyno/human is 0.3.
Regarding B2, the IC50 chromogenic stood at 1.2 nM and the IC50 ratio cyno/human is 0.4.
The corresponding values for B3 are 1.2 nM and 0.3.
The molecule B13 yielded an IC50 chromogenic of 0.7 nM.
Consider B4, for which the IC50 chromogenic was 31.6 nM and the IC50 ratio cyno/human came to 0.4.
Take B14: the IC50 chromogenic was 2.2 nM.
As to B5, the IC50 chromogenic came out at 0.5 nM and the IC50 ratio cyno/human came to 0.4.
For B6, in that order: 117 nM and 0.6.
Take B7: the IC50 chromogenic came to 1.1 nM and the IC50 ratio cyno/human is 1.8.
Consider B8, for which the IC50 chromogenic stood at 2.1 nM and the IC50 ratio cyno/human was determined as 0.3.
B15 gave an IC50 chromogenic of 1.3 nM.
B9: the IC50 chromogenic came out at 0.5 nM and the IC50 ratio cyno/human is 0.1.
The corresponding values for B10 are 0.1 nM and 0.1.
The corresponding values for B11 are 0.5 nM and 0.2.
For the molecule B16, the IC50 chromogenic was determined as 0.5 nM.

Another assay deals with T1, rat PAI-1. Briefly: cell-based or functional assay. This is another data set of the same source.
Consider B5, for which the “fold higher IC50 in the rat chromogenic assay, against the human assay” value is approximately 180 fold.

Another assay has as its target T3, human PAI-1, active, wild-type, …. The experiment in a line: cell-based or functional assay. The source holds these as a separate data set.
Take B12: the “IC50 HT-1080 Exo PAI-1” value worked out at 28 nM.
The same measure, in the same setting: the result for B1 reads 36 nM; that for B2, 23.9 nM; that for B13, 23 nM.
As to B14, the “IC50 HT-1080 Exo PAI-1” value was 18.8 nM.
Still for that read-out and setting: the result for B15 reads 19.1 nM; that for B16, 9.5 nM.

A further assay concerns the target T1, rat PAI-1. Briefly: cell-based or functional assay. This is another data set of the same source.
Turning to B12, the “IC50 HT-1080 Exo PAI-1” value is 52 nM.
Still for that read-out and setting: the result for B1 reads 57 nM; that for B13, 52.7 nM.
As to B14, the “IC50 HT-1080 Exo PAI-1” value was found to be 33.8 nM.
The same measure, in the same setting: the result for B5 reads 37 nM; that for B15, 42.4 nM.

A further assay addresses T2, mouse PAI-1. The experiment in a line: cell-based or functional assay. This is another data set of the same source.
Turning to B12, the “IC50 HT-1080 Exo PAI-1” value is 22 nM.
Still for that read-out and setting: the result for B1 reads 37 nM; that for B2, 34.5 nM.
Same read-out and setting: the result for B13 reads 21 nM; that for B14, 16.4 nM.
On the same count and under the same terms, the result for B15 reads 18.1 nM.
